Four molecules from patent publication US20250353920A1 (SUBDOMAIN, published 2025) can be followed below.

The target of one experiment is T1, CD123 (Homo sapiens (Human), UniProt P26951 19-305, limits assumed).
T1 sequence: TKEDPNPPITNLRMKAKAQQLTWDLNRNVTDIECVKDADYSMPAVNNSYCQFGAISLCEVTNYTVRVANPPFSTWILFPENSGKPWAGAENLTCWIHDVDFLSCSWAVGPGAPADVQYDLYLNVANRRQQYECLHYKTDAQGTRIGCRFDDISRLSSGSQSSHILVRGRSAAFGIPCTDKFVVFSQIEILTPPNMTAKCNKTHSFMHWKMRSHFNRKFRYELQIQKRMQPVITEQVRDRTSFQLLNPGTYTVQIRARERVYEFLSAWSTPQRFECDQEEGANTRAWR
In words: library selection; assay not told.

Experiment [1] concerns the target control (IgG Fc). In words: phage ELISA, 89 identical clones, control wells.
Experiment [2] addresses control (IgG Fc). As to the kind of experiment: phage ELISA, control wells, upper end of the distribution.
Experiment [3] addresses control (IgG Fc). As to the kind of experiment: phage ELISA, control wells, lower end of the distribution. For orientation: ELISA stands for enzyme-linked immunosorbent assay.

B1: SEQ ID NO 101 (designed binder)
chain: MGSWTEFDRRLDAIWDRLFALGGSEAELAAFEKEIAAFESELQAYKGKGNPEVEWLREEAADIRDYLQAYRHN
notes: DBDpp, library F3
Turning to B1, the binding result with CD123 is given as “binds”.

B2: SEQ ID NO 102 (designed binder)
chain: MGSWTEFDRRLDAIWDRLFALGGSEAELAAFEKEIAAFESELQAYKGKGNPEVEWLREEAADIRDYLQAYRHN
notes: DBDpp, library F3
For B2, the binding result with CD123 was “binds”.

B3: SEQ ID NO 114 (designed binder)
chain: MGSWTEFDRRLDAIWDRLFALGGSEAELAAFEKEIAAFESELQAYKGKGNPEVEWLREEAADIRDYLQAYRHN
notes: DBDpp, library F3
Consider B3, for which the binding result with CD123 is “binds”.

B4: bb10 (designed binder)
chain: MGSWAEFKQRLAAIKTRLEALGGSEAELAAFLGEIWAFEMELAAYKGKGNPEVEALGREAAAIRMELQAYRHN
In the case of B4, the ELISA absorbance amounted to 0.067 OD with control (IgG Fc) [1], 0.125 OD in the experiment with control (IgG Fc) [2] and 0.056 OD in the experiment with control (IgG Fc) [3].
